Results taken from patent US7202329 (MYRIAD GENETICS, dated 2007).

B4: Tsg101 (aa 147-391) (other, human, UniProt Q99816 147-390, looked up)
chain: SASYPPYQATGPPNTSYMPGMPGGISPYPSGYPPNPSGYPGCPYPPGGPYPATTSSQYPSQPPVTTVGPSRDGTISEDTIRASLISAVSDKLRWRMKEEMDRAQAELNALKRTEEDLKKGHQKLEEMVTRLDQEVAEVDKNIELLKKKDEELSSALEKMENQSENNDIDEVIIPTAPLYKQILNLYAEENAIEDTIFYLGEALRRGVIDLDVFLKHVRLLSRKQFQLRALMQKARKTAGLSDLY
notes: range 147-391
B7: VPS28 protein (aa 10-221) (other, human, UniProt Q9UK41 10-221, looked up)
chain: GIGAPGNKPELYEEVKLYKNAREREKYDNMAELFAVVKTMQALEKAYIKDCVSPSEYTAACSRLLVQYKAAFRQVQGSEISSIDEFCRKFRLDCPLAMERIKEDRPITIKDDKGNLNRCIADVVSLFITVMDKLRLEIRAMDEIQPDLRELMETMHRMSHLPPDFEGRQTVSQWLQTLSGMSASDELDDSQVRQMLFDLESAYNAFNRFLHA

Columns and labels:
Assay in all cases: yeast two-hybrid
[1] = biological target: T1, Protein kinase C and casein kinase substrate (PACSIN2) (aa 174-367) (UniProt Q9UNF0 174-367)
T1 construct: range 174-367
T1 sequence (looked up): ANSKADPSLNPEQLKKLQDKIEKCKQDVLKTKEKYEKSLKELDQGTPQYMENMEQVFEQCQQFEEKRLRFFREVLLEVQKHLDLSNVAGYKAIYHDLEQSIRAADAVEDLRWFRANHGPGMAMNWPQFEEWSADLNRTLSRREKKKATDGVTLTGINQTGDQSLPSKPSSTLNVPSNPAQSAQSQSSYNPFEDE

[2] = biological target: T2, Death associated protein 5 (DAP5) (aa 16-157) (UniProt P78344 16-157)
T2 construct: range 16-157
T2 sequence (looked up): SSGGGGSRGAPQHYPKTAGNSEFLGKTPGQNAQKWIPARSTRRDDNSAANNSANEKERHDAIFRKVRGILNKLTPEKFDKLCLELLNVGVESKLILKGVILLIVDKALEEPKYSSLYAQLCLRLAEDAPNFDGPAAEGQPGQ

[3] = biological target: B7
[4] = biological target: T3, Chromosome-associated polypeptide HCAP (aa 119-353) (human, UniProt Q9UQE7 119-353)
T3 construct: range 119-353

Tsg101 (aa 147-391) = biological target: B4
[5] = biological target: T4, hypothetical protein FLJ10540 (aa 1-140) (UniProt Q53EZ4 1-140)
T4 construct: range 1-140
T4 sequence (looked up): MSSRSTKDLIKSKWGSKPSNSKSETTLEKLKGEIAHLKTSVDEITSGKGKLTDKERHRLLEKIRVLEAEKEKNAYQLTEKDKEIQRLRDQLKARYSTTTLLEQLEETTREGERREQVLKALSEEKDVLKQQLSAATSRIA

[6] = biological target: T5, Golgi autoantigen (Golgin-84) (aa 198-501) (UniProt Q8TBA6 198-501)
T5 construct: range 198-501
T5 sequence (looked up): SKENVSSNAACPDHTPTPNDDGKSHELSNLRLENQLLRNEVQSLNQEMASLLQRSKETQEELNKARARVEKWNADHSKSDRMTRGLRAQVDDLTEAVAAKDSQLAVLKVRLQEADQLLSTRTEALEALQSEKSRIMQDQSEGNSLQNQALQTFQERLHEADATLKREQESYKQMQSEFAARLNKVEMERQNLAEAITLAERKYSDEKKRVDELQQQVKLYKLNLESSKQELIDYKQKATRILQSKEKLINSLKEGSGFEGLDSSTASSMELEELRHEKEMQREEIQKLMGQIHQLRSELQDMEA

[7] = biological target: T6, Cytoplasmic linker 2 (CYLN2) (aa 607-947) (UniProt Q9UDT6 607-947)
T6 construct: also called CLIP-115
T6 sequence (looked up): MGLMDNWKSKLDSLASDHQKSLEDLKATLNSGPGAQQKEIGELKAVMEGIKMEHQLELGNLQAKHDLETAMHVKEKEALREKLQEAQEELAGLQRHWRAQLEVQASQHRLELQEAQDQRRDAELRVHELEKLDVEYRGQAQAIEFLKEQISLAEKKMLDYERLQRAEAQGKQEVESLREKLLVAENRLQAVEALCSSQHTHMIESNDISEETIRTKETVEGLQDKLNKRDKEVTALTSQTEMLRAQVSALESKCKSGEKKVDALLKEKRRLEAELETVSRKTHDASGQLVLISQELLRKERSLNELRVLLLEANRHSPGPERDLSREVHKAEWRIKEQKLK

VPS28 protein (aa 9-211) = biological target: T7, VPS28 protein (aa 9-211) (human, UniProt Q9UK41 9-211)
T7 construct: range 9-211
T7 sequence (looked up): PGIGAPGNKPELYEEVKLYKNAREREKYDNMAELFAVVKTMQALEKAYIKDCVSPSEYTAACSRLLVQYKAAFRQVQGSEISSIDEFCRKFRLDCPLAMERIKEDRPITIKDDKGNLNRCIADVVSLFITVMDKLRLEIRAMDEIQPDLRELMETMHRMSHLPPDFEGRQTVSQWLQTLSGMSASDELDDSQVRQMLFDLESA

T3 sequence (Q9UQE7 119-353 limits assumed): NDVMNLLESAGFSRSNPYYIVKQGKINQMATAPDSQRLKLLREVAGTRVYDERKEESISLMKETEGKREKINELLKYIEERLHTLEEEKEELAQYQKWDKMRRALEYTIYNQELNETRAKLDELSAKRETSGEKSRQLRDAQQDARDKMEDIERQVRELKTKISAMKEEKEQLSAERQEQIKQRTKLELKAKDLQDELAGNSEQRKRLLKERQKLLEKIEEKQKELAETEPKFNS

B1: Tsg101 (aa 265-391) (other, human, UniProt Q99816 265-390, looked up)
chain: KGHQKLEEMVTRLDQEVAEVDKNIELLKKKDEELSSALEKMENQSENNDIDEVIIPTAPLYKQILNLYAEENAIEDTIFYLGEALRRGVIDLDVFLKHVRLLSRKQFQLRALMQKARKTAGLSDLY
notes: range 265-391
binding result [1]: binds
binding result [2]: binds
binding result [3]: binds
binding result [4]: binds

B2: VPS28 protein (aa 27-221) (other, human, UniProt Q9UK41 27-221, looked up)
chain: YKNAREREKYDNMAELFAVVKTMQALEKAYIKDCVSPSEYTAACSRLLVQYKAAFRQVQGSEISSIDEFCRKFRLDCPLAMERIKEDRPITIKDDKGNLNRCIADVVSLFITVMDKLRLEIRAMDEIQPDLRELMETMHRMSHLPPDFEGRQTVSQWLQTLSGMSASDELDDSQVRQMLFDLESAYNAFNRFLHA
binding result (Tsg101 (aa 147-391)): binds

B3: Tsg101 (aa 140-270) (other, human, UniProt Q99816 140-270, looked up)
chain: PVFSRPISASYPPYQATGPPNTSYMPGMPGGISPYPSGYPPNPSGYPGCPYPPGGPYPATTSSQYPSQPPVTTVGPSRDGTISEDTIRASLISAVSDKLRWRMKEEMDRAQAELNALKRTEEDLKKGHQKL
notes: range 140-270
binding result [5]: binds

B4
binding result [6]: binds

B5: Tsg101 (aa 317-391) (other, human, UniProt Q99816 317-390, looked up)
chain: VIIPTAPLYKQILNLYAEENAIEDTIFYLGEALRRGVIDLDVFLKHVRLLSRKQFQLRALMQKARKTAGLSDLY
notes: range 317-391
binding result [3]: binds

B6: Tsg101 (aa 231-391) (other, human, UniProt Q99816 231-390, looked up)
chain: ISAVSDKLRWRMKEEMDRAQAELNALKRTEEDLKKGHQKLEEMVTRLDQEVAEVDKNIELLKKKDEELSSALEKMENQSENNDIDEVIIPTAPLYKQILNLYAEENAIEDTIFYLGEALRRGVIDLDVFLKHVRLLSRKQFQLRALMQKARKTAGLSDLY
binding result [6]: binds
binding result [7]: binds
binding result (VPS28 protein (aa 9-211)): binds
binding result [3]: binds

B7
binding result (Tsg101 (aa 147-391)): binds
